This note sets out measurements from PMC3907796, “The C-Terminal Region of G72 Increases D-Amino Acid Oxidase Activity” (International Journal of Molecular Sciences, 2013).

The labels stand for the following.
B1: N-terminally biotinylated G72(138-153) peptide (peptide, UniProt P59103 138-153, looked up)
peptide: Biotin-KDQSCNHKEITSTKAE
B2: DAO-6H (recombinant D-amino acid oxidase with C-terminal (His)6) (enzyme)
chain: not shown
notes: D-amino acid oxidase (DAO), cDNA amplified with DAO-F'-NdeI/DAO-R'-XhoI (the primers of the full-length 1044 bp cDNA, GI:30524341), in pET23a(+); Detected in the pull-down with anti-His-tag; also called recombinant DAO; source: E. coli BL21(DE3)pLysS, purified (HisTrap FF); not shown: His6, C-terminal, kept
B3: N-terminally biotinylated G72(123-153) peptide (peptide, UniProt P59103 123-153, looked up)
peptide: Biotin-RQPLERMWTCNYNQQKDQSCNHKEITSTKAE
modifications: cysteine pairing not given here

No end group written: not given here. *: point of attachment. Biotin = O=C1N[C@H]2[C@H](CS[C@H]2CCCCC(=O)*)N1

Assay [1] addresses B2. The assay can be described thus: cell-based or functional assay.
For assay [2], the target named is B3. The experiment in a line: pull-down; 10 μg biotinylated G72 peptide on streptavidin Sepharose beads, 10 μg DAO-6H in phosphate-buffered saline, 4 °C, 3 h, ten washes; DAO detected by Western blotting (anti-His-tag); beads alone as control. The settings on record: both partners purified. A general note: Immunoblotting shows a protein as a band on a membrane.
Assay [3] deals with B1. The assay is described as above. The following applies: both partners purified.
Assay [4] addresses T1, BD-G72 (full-length G72 N-terminally tagged with the binding domain) (UniProt P59103 1-153).
T1 construct: probably pGBKT7; The BD fusion was detected with anti-c-Myc; also called full-length BD-G72; G72 isoform 1; source: yeast two-hybrid fusion, S. cerevisiae AH109; not shown: from the vector pGBDT7), N-terminal, kept
T1 sequence (looked up): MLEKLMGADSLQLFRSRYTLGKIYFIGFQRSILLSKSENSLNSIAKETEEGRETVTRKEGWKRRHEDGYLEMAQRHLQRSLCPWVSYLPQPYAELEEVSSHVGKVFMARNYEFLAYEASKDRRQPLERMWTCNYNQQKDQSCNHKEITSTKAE
The experiment in a line: two-hybrid; β-galactosidase activity of AH109 transformants grown in SD/-2 broth at 30 °C, normalised to yeast with the AD and BD tags alone. The following applies: partners not purified.

For B1, the “initial velocity (V0) of DAO activity (400 nM DAO-6H, 40 mM D-alanine, 25 °C) with 0, 1, 3, 10 μM G72(138-153); V0 at 10 μM, fold of DAO alone in parentheses” value in assay [1] was 2.94 mol hydrogen peroxide produced/min/g DAO. B2: the “relative amount of DAO pulled down (against beads alone)” value stood at 1.38 fold in assay [2] and 2.17 fold in assay [3]. For the molecule B3, the “initial velocity (V0) of DAO activity (400 nM DAO-6H, 40 mM D-alanine, 25 °C) with 0, 1, 3, 10 μM G72(123-153); V0 at 10 μM, fold of DAO alone in parentheses” value in assay [1] is 2.71 mol hydrogen peroxide produced/min/g DAO.

B4: AD-DAO (D-amino acid oxidase N-terminally tagged with the activation domain) (enzyme)
chain: not shown
notes: D-amino acid oxidase (DAO), full-length cDNA of 1044 bp, GI:30524341; The AD fusion was detected with anti-HA; source: yeast two-hybrid fusion, S. cerevisiae AH109; not shown: from the vector pGADT7), N-terminal, kept
Regarding B4, the “relative interaction strength by β-galactosidase activity (AD tag with BD tag = 1)” value in assay [4] came to 5.7 fold.
